The source of these data is patent US20190343963A1.

The target of experiment [1] is IL-13 (human) (UniProt P35225). Briefly: competition ELISA; 1 h incubation.
The target in experiment [2] is IL-13 (human) (UniProt P35225). Briefly: competition ELISA; 1 h incubation. The source holds these as a separate data set. Background: ELISA stands for enzyme-linked immunosorbent assay.
For experiment [3], the target named is IL-13 (human) (UniProt P35225). Briefly: competition ELISA; 24 h incubation.
Experiment [4] has as its target IL-13 (human) (UniProt P35225). As to the kind of experiment: competition ELISA; 24 h incubation. The source holds these as a separate data set.

IL-13 (human), sequence (P35225 35-146): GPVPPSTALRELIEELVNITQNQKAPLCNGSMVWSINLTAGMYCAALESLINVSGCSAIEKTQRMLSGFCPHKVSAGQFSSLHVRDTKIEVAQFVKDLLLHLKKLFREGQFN

For the substance CAT-354, the EC50 came out at 0.25 nM with IL-13 (human) [1], 2.1 nM with IL-13 (human) [2], 0.54 nM in the experiment with IL-13 (human) [3] and 2.28 nM with IL-13 (human) [4].
With CAT-354 fab, the EC50 was determined as 3.56 nM with IL-13 (human) [2] (Fab) and 4 nM with IL-13 (human) [3] (Fab).

The term EC50 denotes the concentration at which the effect is half-maximal.
